Test results from article PMC3103431, “The four Zn fingers of MBNL1 provide a flexible platform for recognition of its RNA binding elements”.

Experiments:
MBNL1 (2-260) [1] = molecular target: T1, MBNL1 (2-260) (Homo sapiens, UniProt Q9NR56 2-260); experiment: EMSA; 5 mM Mg2+; 100 mM NaCl, 21 mM Tris pH 7.5, 5 mM MgCl2, 0.1 mM EDTA, 2 mg/mL BSA, 0.1 mg/mL heparin, 0.5 mM BME, 5 mM DTT, 0.02% Triton X-100, 10% glycerol, 0.02 nM RNA, room temperature 30 min; settings: protein: recombinant; tags: GST tag removed; label: 5' 32P; single-stranded
T1 sequence: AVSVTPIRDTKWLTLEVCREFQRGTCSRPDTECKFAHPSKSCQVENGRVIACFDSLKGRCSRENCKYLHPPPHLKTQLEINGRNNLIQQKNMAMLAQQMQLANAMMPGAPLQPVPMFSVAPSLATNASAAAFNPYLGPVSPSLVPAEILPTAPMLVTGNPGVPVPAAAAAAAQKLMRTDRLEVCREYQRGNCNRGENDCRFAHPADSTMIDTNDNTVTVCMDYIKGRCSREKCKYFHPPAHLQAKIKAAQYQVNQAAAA

MBNL1 (2-260) [2] = molecular target: T1, MBNL1 (2-260); experiment: EMSA; 5 mM Mg2+; smearing; 100 mM NaCl, 21 mM Tris pH 7.5, 5 mM MgCl2, 0.1 mM EDTA, 2 mg/mL BSA, 0.1 mg/mL heparin, 0.5 mM BME, 5 mM DTT, 0.02% Triton X-100, 10% glycerol, 0.02 nM RNA, room temperature 30 min; settings: protein: recombinant; tags: GST tag removed; label: 5' 32P; single-stranded
MBNL1 (2-260) [3] = molecular target: T1, MBNL1 (2-260); experiment: EMSA; 5 mM Mg2+; 100 mM NaCl, 21 mM Tris pH 7.5, 5 mM MgCl2, 0.1 mM EDTA, 2 mg/mL BSA, 0.1 mg/mL heparin, 0.5 mM BME, 5 mM DTT, 0.02% Triton X-100, 10% glycerol, 0.02 nM RNA, room temperature 30 min; settings: protein: recombinant, tags: GST tag removed, label: 5' 32P
MBNL1 (2-260) [4] = molecular target: T1, MBNL1 (2-260); experiment: as above; settings: protein: recombinant; tags: GST tag removed; label: 5' 32P; single-stranded; remark: listed apart in the source
MBNL1 (2-260) [5] = molecular target: T1, MBNL1 (2-260); experiment: EMSA; 5 mM Mg2+; range for 2, 3 and 4 GC RNAs; 100 mM NaCl, 21 mM Tris pH 7.5, 5 mM MgCl2, 0.1 mM EDTA, 2 mg/mL BSA, 0.1 mg/mL heparin, 0.5 mM BME, 5 mM DTT, 0.02% Triton X-100, 10% glycerol, 0.02 nM RNA, room temperature 30 min; settings: protein: recombinant; tags: GST tag removed; label: 5' 32P; single-stranded
MBNL1 (2-260) [6] = molecular target: T1, MBNL1 (2-260); experiment: EMSA; 5 mM Mg2+; wild type level; 100 mM NaCl, 21 mM Tris pH 7.5, 5 mM MgCl2, 0.1 mM EDTA, 2 mg/mL BSA, 0.1 mg/mL heparin, 0.5 mM BME, 5 mM DTT, 0.02% Triton X-100, 10% glycerol, 0.02 nM RNA, room temperature 30 min; settings: protein: recombinant; tags: GST tag removed; label: 5' 32P; single-stranded
MBNL1 (2-260) [7] = molecular target: T1, MBNL1 (2-260); experiment: competition; vs 32P-2GC 0.02 nM, 33.3 nM MBNL1; 100 mM NaCl, 21 mM Tris pH 7.5, 5 mM MgCl2, 0.1 mM EDTA, 2 mg/mL BSA, 0.1 mg/mL heparin, 0.5 mM BME, 5 mM DTT, 0.02% Triton X-100, 10% glycerol, 0.02 nM RNA, room temperature 30 min; settings: protein: recombinant; tags: GST tag removed; label: 5' 32P; single-stranded
MBNL1 (2-260) [8] = molecular target: T1, MBNL1 (2-260); experiment: EMSA; 5 mM Mg2+; smearing; 100 mM NaCl, 21 mM Tris pH 7.5, 5 mM MgCl2, 0.1 mM EDTA, 2 mg/mL BSA, 0.1 mg/mL heparin, 0.5 mM BME, 5 mM DTT, 0.02% Triton X-100, 10% glycerol, 0.02 nM RNA, room temperature 30 min; settings: protein: recombinant; tags: GST tag removed; label: 5' 32P; single-stranded; remark: listed apart in the source

## AAUGCUAAAAAAAAAAAUGCUAA (ssRNA) [A4]
MBNL1 (2-260) [1]
  binding signal: > 10 fold weaker than 2GC

## UCCUUUUUUUUUCCUGCUUUUUUUUUCCU (ssRNA) [1GC#2]
MBNL1 (2-260) [2]
  binding signal: ~5 fold higher Kd than the 2-4 GC 29-nt RNAs

## UUAGCAUUUUUUUUUUUAGCAUU (ssRNA) [AGCA]
MBNL1 (2-260) [3]; single-stranded
  binding signal: 5 fold weaker than 2GC

## UUCGCCUUUUUUUUUUUCGCCUU (ssRNA) [CGCC]
MBNL1 (2-260) [4]
  Kd: 7 nM

## UUGGCGUUUUUUUUUUUGGCGUU (ssRNA) [GGCG]
MBNL1 (2-260) [3]
  binding signal: 40 fold weaker than 2GC

## UGCUUUUUUUUUGCUGCUUUUUUUUUGCU (ssRNA) [4GC]
MBNL1 (2-260) [5]
  Kd: 3.16 nM

## UUUGCUUUUUUUUUUUUUGCUUU (ssRNA) [2GC]
MBNL1 (2-260) [4]
  Kd: 11 nM

## CCUGCUCCCCCCCCCCCUGCUCC (ssRNA) [C4]
MBNL1 (2-260) [6]
  binding result: binds

## CCCGCCCCCCCCCCCCCCGCCCC (ssRNA) [C]
MBNL1 (2-260) [4]
  Kd: 111 nM

## UUUGCUUUUUUUUUUUUUUUUUU (ssRNA) [1GC]
MBNL1 (2-260) [7]
  binding signal: 15 fold weaker than 2GC
MBNL1 (2-260) [8]
  Kd: 45 nM
